Literature values, collected in patent US9084831B2, “Molecular probe precursor for imaging of pancreatic islet, and use thereof” (Kyoto University, priority 2008, dated 2015).

Details: mouse, in vivo, iv; cited from earlier work

Question: With “^125I labeled exendin(9-39): exendin(9-39), a GLP-1R ligand, 125I-labeled by Bolton-Hunter labeling (PerkinElmer NEX 335)” as the substance, how does the “accumulation and binding among organs” value read?
Answer: accumulates selectively and specifically in the pancreas among organs
